Measured values taken from PMC2759312.

Biological target: gamma complex labeled with AF488 on delta' (gammac-AF488);beta sliding clamp (Escherichia coli;Escherichia coli, UniProt P06710-2;P28630;P28631;P28905;P28632;P0A988 1-431;1-343;1-334;1-147;1-137;1-366, |)
Assay: fluorescence anisotropy

B1: p/t-DNA-RhX (30-nt primer on 60-nt template) (dsDNA)
DNA 1: TTCAGGTCAGAAGGGTTCTATCTCTGTTGGCCAGAATGTCCCTTTTATTACTGGTCGTGT
DNA 2: ACACGACCAGTAATAAAAGGGACATTCTGG
modifications: C6-amino linker at 5' end of 60mer
  binding result: binds
